# Key:
# EGFR [1] = biological target: T1, EGFR (Homo sapiens, UniProt P00533); assay: Cell based (affinity) ELISA: binding of hTGFα to EGFR on A431 cells; conditions: compared to wild type hTGFα
# T1 construct: A431 cells, which are known to express high levels of EGFR on their surface; host or cells: A431 cells
# Description: Binding activity of hTGFα to EGFR was also confirmed by cell based ELISA and FACS analysis using A431 cells, which are known to express high levels of EGFR on their surface. For the cell-based assay, A431 cells (ATCC#CRL1555) were seeded into the wells of a 96 well plate. A 1000 ng/ml solution of human TGFα (hTGFα) was serially diluted (two-fold dilutions), aliquots of each dilution added to the immobilized cells, and the plates incubated to allow binding. (FIG. 3A) After washing, bound hTGFα was detected using biotinylated anti-hTGFα (R&D Systems #BAF239) and Streptavidin conjugated with HRP. TMB was added to each well, the reactions stopped after four minutes, and the samples read as described above in paragraph a). (FIG. 3B) The standard curve was generated using Softmax. (FIG. 3C)
# BAP060-hTGFα-B (mature hTGFα, aa 40-89, with PelB signal sequence) wild type and CPE™ mutants were transformed into E. coli BL21 (DE3) competent cells, and recombinant protein expression induced by addition of 1 mM IPTG at 37° C. for 3 hours in 96 well format (1st confirmation) or in 14 ml tubes (2nd confirmation). After three hours, the cells were collected and periplasmic proteins prepared by incubating the cells in OS buffer (200 mM Tris-HCl, pH 7.5, 20% sucrose, 1 mM EDTA) with DNAse, RNAse and lysozyme. After addition of lysis buffer (10 mM Tris, pH 7.5, 50 mM KCl, 1 mM EDTA and 0.1% of Na-deoxycholate) to the cells in OS buffer, the cells were centrifuged and the supernatants, which contained the periplasmic fractions, were transferred to microcentrifuge tubes. The concentration of hTGFα was determined by quantitation ELISA, and 25 ng/ml of hTGFα were incubated with A431 cells (ATCC#CRL1555) immobilized on the plate. Bound hTGFα was detected with biotinylated anti-hTGFα (R&D Systems, #BAF239) and Streptavidin conjugated with HRP. The reactions were stopped by addition of HCl after TMB was added to the wells and read immediately. OD450 nm value of the reactions was measured with a Molecular Device SPECTRAmax. The initial screen identified 94 CPE™ mutants that had 1.5 fold higher binding activity compared to the wild type TGFα in the primary screening. The sequences of these CPE™ mutants are shown below in Table 2, while select characteristics for all of the CPE™ mutants can be found in FIG. 11A.
# A first confirmation was performed by re-transforming E. coli BL21 cells with plasmids containing the 94 CPE™ mutants, collected the periplasmic fractions after IPTG induction and performed quantitation ELISA and cell based ELISA. This first confirmation identified 37 CPE™ mutants having a higher binding activity compared to the wild type TGFα . The second confirmation identified 27 CPE™ putative hits that consistently had higher binding activity compared to the wild type TGFα. These 27 CPE™ mutants were then tested in a cell based EGFR phosphorylation assay to confirm the functional activity of the CPE™ mutants. (FIGS. 11B and 12B)
# In addition, 15 CPS™ mutants (containing up to 5 mutations) having an increased ability to induce the phosphorylation of EGFR, relative to the wild type hTGFα (FIG. 14), were selected for cell based titration ELISA to confirm their binding activities (FIG. 15). Briefly, BAP060-hTGFα-B (mature hTGFα, aa 40-89, with PelB signal sequence) wild type and CPS™ mutants were transformed into E. coli BL21 (DE3) competent cells. Protein was expressed upon the addition of 1 mM IPTG at 37° C. for 3 hours in 96 well format. Cells were collected after induction and periplasmic proteins prepared by incubating the cells in OS buffer with DNAse, RNAse and lysozyme. Lysis buffer was added to the cells in OS buffer, the cells centrifuged, and the supernatants containing the periplasmic fractions transferred to a clean set of microcentrifuge tubes. Concentration of hTGFα in each sample was determined by quantitation ELISA. […]
# [2] = Physical characteristics of mutants (isoelectric point, hydrophobicity); type: physicochemical; conditions: compared to wild type hTGFα
# [3] = test system: central nervous system (CNS); conditions: peripheral route, animal model of Parkinson's disease; cited from earlier work
# neuronal stem cell = conditions: ICV or intrastriatal infusion over 18 days, rat brain; cited from earlier work
# EGFR [4] = biological target: T1, EGFR; assay: Cell based EGFR phosphorylation assay in A431 cells; conditions: compared to wild type hTGFα
# Description: A cell based EGFR phosphorylation assay was set up to determine the binding activity of hTGFα to EGFR using a functional assay. A431 cells were seeded in 96 well formats and were serum starved overnight. The cells were washed in serum free media and incubated with 50 ul of 0, 50, 100 or 200 ng/ml of EGF (FIG. 5A, column 1) or hTGFα (FIG. 5A, column 2) in DMEM at 37° C. for 10 min: The cells were then washed with PBS and lysed. Half of the cell lysate were used to determine the level of total EGFR (FIG. 5C) using Cell Signaling kit #7250 and the other half of the cell lysate were used to determined the level of phosphorylated EGFR (FIG. 5B) using Cell Signaling kit #7240 following vendor's protocols.
# EGFR phosphorylation. BAP060-hTGFα -B (mature hTGFα, aa 40-89, with PE1B signal sequence) was transformed into E. coli BL21 (DE3) competent cells. […] Half of the cell lysate were used to determine the level of total EGFR using Cell Signaling kit #7250 and the other half of the cell lysate were used to determined the level of phosphorylated EGFR using Cell Signaling kit #7240 following vendor's protocols.
# E. coli BL21 cells were transformed with BAP060-hTGFα -B CPS™ mutants and induced with IPTG at 37° C. The periplasmic fractions after IPTG induction were collected and the expression levels of hTGFα determined by quantitation ELISA, as described above. […]
Mutant Characteristics: affinity (EGFR [1]),Substance,also measured
"Neutral affinity,",BAP060-E027L: CPE™ single-substitution mutant of mature hTGFα,
"Increased affinity,",BAP060-A050W: CPE™ single-substitution mutant of mature hTGFα,
"Neutral affinity,",BAP060-A041D: CPE™ single-substitution mutant of mature hTGFα,Mutant Characteristics: PI (isoelectric point) [2]: lower PI; Mutant Characteristics: hydrophobicity [2]: decreased
,TGF-α: member of the EGF family that binds the EGF receptor,abnormal motor behavior [3]: ameliorates abnormal motor behavior; neurogenesis of the central nervous system [3]: promotes neurogenesis of the central nervous system (CNS); neuronal stem cell proliferation (neuronal stem cell): induced neuronal stem cell proliferation
"Increased affinity,",BAP060-Q014G: CPE™ single-substitution mutant of mature hTGFα,
"Increased affinity,",BAP060-A046Y: CPE™ single-substitution mutant of mature hTGFα,
"Increased affinity,",BAP060-F017L: CPE™ single-substitution mutant of mature hTGFα,"Mutant Characteristics: P-EGFR induction (EGFR [4]): P-EGFR induction,"
"Increased affinity,",BAP060-S036R: CPE™ single-substitution mutant of mature hTGFα,
